These results are taken from patent US20250376536A1 (Bristol-Myers Squibb, published 2025).

Assay [1] concerns the target T1, human FAP on cells (human, UniProt Q12884 1-760).
T1 construct: also called FAP-positive HEK cells (human); human FAP-expressing HEK cells
T1 sequence: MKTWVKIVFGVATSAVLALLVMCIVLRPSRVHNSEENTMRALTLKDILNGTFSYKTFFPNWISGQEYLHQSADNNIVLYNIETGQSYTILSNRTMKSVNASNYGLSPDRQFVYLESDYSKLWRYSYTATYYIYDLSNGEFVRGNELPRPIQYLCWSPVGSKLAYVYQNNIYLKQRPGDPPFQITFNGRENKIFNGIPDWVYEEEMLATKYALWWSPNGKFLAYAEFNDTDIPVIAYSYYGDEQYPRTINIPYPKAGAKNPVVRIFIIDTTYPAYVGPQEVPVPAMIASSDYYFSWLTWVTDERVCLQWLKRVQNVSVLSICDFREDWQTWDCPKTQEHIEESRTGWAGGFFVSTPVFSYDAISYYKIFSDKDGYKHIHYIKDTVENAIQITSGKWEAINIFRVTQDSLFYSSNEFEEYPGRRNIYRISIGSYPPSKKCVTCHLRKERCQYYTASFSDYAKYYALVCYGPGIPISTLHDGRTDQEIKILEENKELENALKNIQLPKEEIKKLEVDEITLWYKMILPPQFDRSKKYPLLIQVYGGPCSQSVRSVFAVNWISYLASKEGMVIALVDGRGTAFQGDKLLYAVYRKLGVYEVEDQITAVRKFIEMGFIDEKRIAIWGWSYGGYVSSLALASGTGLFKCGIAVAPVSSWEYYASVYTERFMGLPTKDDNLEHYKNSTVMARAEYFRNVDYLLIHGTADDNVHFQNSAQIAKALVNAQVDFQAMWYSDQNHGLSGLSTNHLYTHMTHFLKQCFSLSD
In words: binding to human FAP-positive HEK cells.

The next assay has as its target T2, human CD40 protein (human, UniProt P25942 21-193).
T2 construct: Protein used in SPR
Briefly: SPR. Here is the method: (§1) CD40.9H3×FAP.LP62 and an analog of RO7300490 (see SEQ ID NOs: 39-42) binding to human and cynomolgus (cyno) CD40 and FAP was evaluated by surface plasmon resonance (SPR) using human and cyno CD40 and FAP proteins. […] The rates of association and dissociation of CD40.9H3×FAP.LP62 and the analog of RO7300490 to human CD40 and FAP are summarized in Table 2.

Assay [2] concerns the target cynomolgus (cyno) CD40 protein (cynomolgus monkey, UniProt G7PG38 21-193). In words: SPR. The procedure:
as §1

For assay [3], the target named is T3, cynomolgus (cyno) FAP protein (cynomolgus monkey).
T3 chain: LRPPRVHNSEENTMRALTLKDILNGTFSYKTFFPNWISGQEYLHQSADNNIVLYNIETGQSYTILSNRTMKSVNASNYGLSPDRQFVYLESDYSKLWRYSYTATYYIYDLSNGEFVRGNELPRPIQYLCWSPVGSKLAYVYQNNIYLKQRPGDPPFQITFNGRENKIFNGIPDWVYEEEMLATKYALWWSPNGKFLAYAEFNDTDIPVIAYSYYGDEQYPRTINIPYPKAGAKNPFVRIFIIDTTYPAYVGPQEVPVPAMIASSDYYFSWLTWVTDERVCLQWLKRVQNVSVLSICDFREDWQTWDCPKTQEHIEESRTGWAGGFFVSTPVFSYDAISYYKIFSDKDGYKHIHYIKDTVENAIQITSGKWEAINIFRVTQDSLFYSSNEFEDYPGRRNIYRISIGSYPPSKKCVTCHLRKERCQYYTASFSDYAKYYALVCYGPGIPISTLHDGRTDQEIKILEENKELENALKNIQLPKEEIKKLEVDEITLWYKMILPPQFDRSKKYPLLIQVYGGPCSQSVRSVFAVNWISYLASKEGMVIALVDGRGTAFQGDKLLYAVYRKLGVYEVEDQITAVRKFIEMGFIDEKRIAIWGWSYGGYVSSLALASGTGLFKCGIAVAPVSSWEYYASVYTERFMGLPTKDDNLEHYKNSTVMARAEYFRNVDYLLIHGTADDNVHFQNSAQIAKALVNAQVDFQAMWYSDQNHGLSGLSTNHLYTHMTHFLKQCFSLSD
In words: SPR. The procedure: as §1

In the next assay the target is T4, human FAP protein (human, UniProt Q12884 26-760).
T4 sequence: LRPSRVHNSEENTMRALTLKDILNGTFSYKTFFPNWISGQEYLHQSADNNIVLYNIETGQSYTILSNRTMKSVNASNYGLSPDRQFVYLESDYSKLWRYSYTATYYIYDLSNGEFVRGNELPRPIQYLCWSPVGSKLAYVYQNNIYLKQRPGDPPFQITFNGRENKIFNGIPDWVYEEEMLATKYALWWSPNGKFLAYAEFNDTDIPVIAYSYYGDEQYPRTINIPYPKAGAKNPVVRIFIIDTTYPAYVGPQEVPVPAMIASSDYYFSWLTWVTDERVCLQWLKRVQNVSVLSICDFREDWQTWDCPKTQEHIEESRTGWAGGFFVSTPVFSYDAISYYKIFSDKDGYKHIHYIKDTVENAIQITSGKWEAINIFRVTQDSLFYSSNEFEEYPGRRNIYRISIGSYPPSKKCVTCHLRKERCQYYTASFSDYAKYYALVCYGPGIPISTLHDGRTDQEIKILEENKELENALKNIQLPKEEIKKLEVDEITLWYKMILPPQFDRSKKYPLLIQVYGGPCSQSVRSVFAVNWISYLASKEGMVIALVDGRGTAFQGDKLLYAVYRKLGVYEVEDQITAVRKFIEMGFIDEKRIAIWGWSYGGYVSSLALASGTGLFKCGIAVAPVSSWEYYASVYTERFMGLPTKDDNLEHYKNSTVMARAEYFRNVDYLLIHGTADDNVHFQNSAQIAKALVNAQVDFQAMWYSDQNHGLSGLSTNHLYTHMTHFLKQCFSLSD
In words: SPR. The procedure:
as §1

Assay [4] concerns the target T1, human FAP on cells. In words: cell-based or functional assay.
A further assay addresses T5, soluble FAP (human, UniProt Q12884 26-760, limits assumed).
T5 sequence: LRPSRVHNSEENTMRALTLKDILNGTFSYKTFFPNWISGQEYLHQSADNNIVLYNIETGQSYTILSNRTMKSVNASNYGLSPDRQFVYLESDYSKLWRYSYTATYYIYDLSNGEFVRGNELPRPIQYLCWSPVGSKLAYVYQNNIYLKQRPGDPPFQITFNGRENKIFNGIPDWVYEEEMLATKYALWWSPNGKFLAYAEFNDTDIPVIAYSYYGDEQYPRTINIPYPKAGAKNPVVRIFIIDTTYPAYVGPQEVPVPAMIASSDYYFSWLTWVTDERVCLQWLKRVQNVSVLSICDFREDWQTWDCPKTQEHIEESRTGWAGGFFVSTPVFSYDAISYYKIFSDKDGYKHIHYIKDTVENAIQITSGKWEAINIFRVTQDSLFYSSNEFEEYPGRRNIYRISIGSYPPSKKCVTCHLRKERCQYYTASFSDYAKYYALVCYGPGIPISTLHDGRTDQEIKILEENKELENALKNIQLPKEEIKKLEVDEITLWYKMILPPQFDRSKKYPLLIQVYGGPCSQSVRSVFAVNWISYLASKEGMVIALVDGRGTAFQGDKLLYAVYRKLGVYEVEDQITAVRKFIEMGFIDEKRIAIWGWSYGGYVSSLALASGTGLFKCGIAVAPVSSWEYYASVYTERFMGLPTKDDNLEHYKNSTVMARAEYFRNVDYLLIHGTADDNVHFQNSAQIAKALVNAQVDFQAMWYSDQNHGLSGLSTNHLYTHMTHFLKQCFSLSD
In words: cell-based or functional assay.

In the next assay the target is T6, human CD40 on cells (human, UniProt P25942 21-277).
T6 construct: Endogenous CD40 on human primary cells and Raji cells; also called CD40-positive macrophage; CD40-positive B cell
Briefly: binding to human CD40-positive macrophages.

T2 sequence (P25942 21-193 limits assumed): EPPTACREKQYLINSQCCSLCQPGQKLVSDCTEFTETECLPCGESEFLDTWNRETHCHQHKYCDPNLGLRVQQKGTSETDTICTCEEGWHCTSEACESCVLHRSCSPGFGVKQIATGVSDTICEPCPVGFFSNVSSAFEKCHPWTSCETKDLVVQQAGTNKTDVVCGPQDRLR
T6 sequence (P25942 21-277): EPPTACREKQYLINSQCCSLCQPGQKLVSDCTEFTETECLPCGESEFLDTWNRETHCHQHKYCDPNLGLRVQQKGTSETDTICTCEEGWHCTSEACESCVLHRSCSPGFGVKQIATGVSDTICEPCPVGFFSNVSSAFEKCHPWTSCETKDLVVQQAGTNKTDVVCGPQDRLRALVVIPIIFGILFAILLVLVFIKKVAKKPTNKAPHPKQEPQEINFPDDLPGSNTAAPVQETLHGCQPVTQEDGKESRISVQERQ

B1: CD40.9H3×FAP.LP62 bispecific antibody (bispecific antibody, human IgG1, kappa, L234A L235A)
heavy 1: EVQLVESGGGLVQPGGSLRLSCAASGFTFIGYSMNWVRQAPGKGLEWVSYISSYESTIYYADSVKGRFTISRDNAKNSLYLQMNSLRAEDTAVYYCARSRITLVRGVPRYFDLWGRGTLVTVSSASTKGPSVFPLAPSSKSTSGGTAALGCLVKDYFPEPVTVSWNSGALTSGVHTFPAVLQSSGLYSLSSVVTVPSSSLGTQTYICNVNHKPSNTKVDKKVEPKSCDKTHTCPPCPAPEAAGGPSVFLFPPKPKDTLMISRTPEVTCVVVSVSHEDPEVKFNWYVDGVEVHNAKTKPREEQYNSTYRVVSVLTVLHQDWLNGKEYKCKVSNKALPAPIEKTISKAKGQPREPQVYVLPPSREEMTKNQVSLLCLVKGFYPSDIAVEWESNGQPENNYLTWPPVLDSDGSFFLYSKLTVDKSRWQQGNVFSCSVMHEALHNHYTQKSLSLSPG
heavy 2: EVQLVESGGGLVQPGGSLRLSCAASGFTFIGYSMNWVRQAPGKGLEWVSYISSYESTIYYADSVKGRFTISRDNAKNSLYLQMNSLRAEDTAVYYCARSRITLVRGVPRYFDLWGRGTLVTVSSASTKGPSVFPLAPSSKSTSGGTAALGCLVKDYFPEPVTVSWNSGALTSGVHTFPAVLQSSGLYSLSSVVTVPSSSLGTQTYICNVNHKPSNTKVDKKVEPKSCDKTHTCPPCPAPEAAGGPSVFLFPPKPKDTLMISRTPEVTCVVVSVSHEDPEVKFNWYVDGVEVHNAKTKPREEQYNSTYRVVSVLTVLHQDWLNGKEYKCKVSNKALPAPIEKTISKAKGQPREPQVYVYPPSREEMTKNQVSLTCLVKGFYPSDIAVEWESNGQPENNYKTTPPVLDSDGSFALVSKLTVDKSRWQQGNVFSCSVMHEALHNHYTQKSLSLSPGGGSGGGGSGGGGSGGGGSEVQLLESGGGLVQPGGSLRLSCAASGFTFSSRGMSWVRQAPGKCLEWVSFISSSGTYVYYADSVKGRFTISRDNSKNTLYLQMNSLRAEDTAVYYCARDLPRTGVYFGMDVWGQGTTVTVSSGGGGSGGGGSGGGGSGGGGSDIQMTQSPSSLSASVGDRVTITCRASQSIFNYLNWYQQKPGKAPKLLIYGASTLQSGVPSRFSGSGSGTDFTLTISSLQPEDFATYYCQESYSTPYTFGCGTKVEIK
light: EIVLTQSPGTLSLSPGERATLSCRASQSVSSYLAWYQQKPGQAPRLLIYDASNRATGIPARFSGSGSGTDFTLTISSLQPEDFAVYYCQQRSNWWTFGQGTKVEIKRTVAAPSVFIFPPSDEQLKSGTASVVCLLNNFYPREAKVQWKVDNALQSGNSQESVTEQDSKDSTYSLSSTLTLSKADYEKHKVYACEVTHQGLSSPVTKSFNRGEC
notes: 2+1 format: two anti-CD40 9H3 Fabs on an IgG1 Fc with L234A, L235A, D265S and heterodimerization mutations; Ratio 1:1:2
Regarding B1, the EC50 worked out at 3.72 nM in the assay with human FAP on cells [1] and 11.9 nM in the assay with human CD40 on cells. The Kd with human CD40 protein is 92 nM; in assay [2], 97 nM; in assay [3], 5.6 nM; with human FAP protein it was 1.96 nM. For the same molecule, the koff was 0.0052 s⁻¹ in the assay with human CD40 protein, 0.0052 s⁻¹ in assay [2], 0.00276 s⁻¹ in assay [3] and 0.00147 s⁻¹ in the assay with human FAP protein. Also, the association rate constant (kon) with human CD40 protein stood at 57000 M⁻¹ s⁻¹; in assay [2] it was 53000 M⁻¹ s⁻¹; in assay [3] it was 500000 M⁻¹ s⁻¹; in the assay with human FAP protein, 750000 M⁻¹ s⁻¹. For the same molecule, the “IL12p40 secretion, human DC + HFF1 co-culture, EC50” value in the assay with human FAP on cells [4] amounted to 0.079 nM. In the assay with human FAP on cells [4], the “TNFα release, CD40-positive macrophages + HFF1 co-culture, EC50” value is 0.12 nM. Further, the “fold reduction in potency of IL12p40 secretion with 120 ng/mL soluble FAP” value in the assay with soluble FAP turned out to be 4.2 fold. In the assay with soluble FAP, the “fold reduction in potency of IL12p40 secretion with 480 ng/mL soluble FAP” value was 7.5 fold.
